Data on one molecule can be found in patent publication US20260092115A1 (Chugai, published 2026).

The target in this experiment is T1, mCTLA4-His (mouse, UniProt P09793 36-161).
T1 construct: also called mouse CTLA4; Mouse CTLA4
Kind of experiment: SPR 37C, ATP 100 µM.

B1: 04H1208-G1m/04L1407-k0MT (antibody, human IgG1, kappa, V domains shown)
VH: EVQLVESGGGLVKPGGSLRLSCAASGFTFSSKTMNWVRQAPGKGLEWVSSISTRSGYIYYARSVKGRFTISRDNAKNSLYLQMNSLRAEDTAVYYCARYGKREDMLWVFDYWGQGTLVTVSS
VL: DIVMTQSPLSLPVTPGEPASISCDGPSTDVGDYNWVHWYQQKPGQAPRLLIYYTSSKPEGVPDRFSGSGSGTDFTLKISRVEAEDVGVYYCQTYAAPLGPTFGQGTKLEIKR
Take B1: the “fold weaker binding ability to mouse CTLA4 than to human CTLA4” value was around 2 fold.
